Drawing on PMC5885637 (Journal of molecular biology, 2014), this text covers Kd for 1 molecule.

The Kd is the constant that tells how readily two partners part at equilibrium. A low value points to a tighter complex.

The target of this assay is wild-type mouse PrP (residues 23-231) displayed on the yeast surface (Mus musculus, UniProt P04925). Kind of assay: flow cytometry on cells. On the technique in general: Flow cytometry measures light scatter and fluorescence of single cells or particles in a stream.
wild-type mouse PrP (residues 23-231) displayed on the yeast surface, sequence (P04925 23-231): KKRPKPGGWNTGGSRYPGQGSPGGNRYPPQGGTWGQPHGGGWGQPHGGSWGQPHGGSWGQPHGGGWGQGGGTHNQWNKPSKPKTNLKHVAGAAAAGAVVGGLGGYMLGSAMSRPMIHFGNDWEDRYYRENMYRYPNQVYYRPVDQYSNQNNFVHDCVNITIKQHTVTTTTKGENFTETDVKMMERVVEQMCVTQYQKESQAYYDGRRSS

B1: ICSM18-scFv (scFv, V domains shown)
VH: EVQLQQSGPELVKPGSSVKISCKASRNTFTDYNLDWVKQSHGKTLEWIGNVYPNNGVTGYNQKFRGKATLTVDKSSSTAYMELHSLTSEDSAVYYCALYYYDVSYWGQGTLVTVSS
VL: QIVLTQSPAIMSASPGEKVTMTCSASSSVSYMHWYQQKSGTSPKRWIYDTSKLASGVPARFSGSGSGTSYSLTISSMEAEDAATYFCHQWRSNPYTFGGGTKLEIK
As to B1, binding was put at a Kd of 153 nM.
